Results taken from doi:10.1101/2022.02.01.475276.

Experiments:
Assay in all cases: EMSA
[1] = biological target: SIM1;ARNT2 (SIM1 partner) (;, UniProt P81133;Q9HBZ2 1-348;1-455, |)
[2] = biological target: NPAS4;ARNT2 (NPAS4 partner) (mouse;mouse, UniProt Q8BGD7;Q61324 1-329;1-481, |)
[3] = biological target: HIF1a;ARNT (HIFa partner) (human?;human, UniProt Q16665;P27540 1-375;1-503, |)
[4] = biological target: HIF2a;ARNT (HIFa partner) (human;human, UniProt Q99814;P27540 1-353;1-503, |)
HIF2a;ARNT (HIFa partner), sequence (Q99814 1-353, chain 1 of 2): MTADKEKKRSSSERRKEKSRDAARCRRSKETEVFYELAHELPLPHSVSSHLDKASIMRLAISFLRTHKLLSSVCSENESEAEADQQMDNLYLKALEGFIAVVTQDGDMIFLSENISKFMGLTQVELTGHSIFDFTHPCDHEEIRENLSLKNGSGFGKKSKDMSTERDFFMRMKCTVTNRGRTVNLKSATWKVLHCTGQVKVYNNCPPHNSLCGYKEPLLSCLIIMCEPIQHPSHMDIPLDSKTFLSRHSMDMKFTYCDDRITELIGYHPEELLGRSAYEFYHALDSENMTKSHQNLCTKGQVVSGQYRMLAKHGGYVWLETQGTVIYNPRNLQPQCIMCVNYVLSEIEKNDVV
HIF2a;ARNT (HIFa partner), sequence (P27540 1-503, chain 2 of 2): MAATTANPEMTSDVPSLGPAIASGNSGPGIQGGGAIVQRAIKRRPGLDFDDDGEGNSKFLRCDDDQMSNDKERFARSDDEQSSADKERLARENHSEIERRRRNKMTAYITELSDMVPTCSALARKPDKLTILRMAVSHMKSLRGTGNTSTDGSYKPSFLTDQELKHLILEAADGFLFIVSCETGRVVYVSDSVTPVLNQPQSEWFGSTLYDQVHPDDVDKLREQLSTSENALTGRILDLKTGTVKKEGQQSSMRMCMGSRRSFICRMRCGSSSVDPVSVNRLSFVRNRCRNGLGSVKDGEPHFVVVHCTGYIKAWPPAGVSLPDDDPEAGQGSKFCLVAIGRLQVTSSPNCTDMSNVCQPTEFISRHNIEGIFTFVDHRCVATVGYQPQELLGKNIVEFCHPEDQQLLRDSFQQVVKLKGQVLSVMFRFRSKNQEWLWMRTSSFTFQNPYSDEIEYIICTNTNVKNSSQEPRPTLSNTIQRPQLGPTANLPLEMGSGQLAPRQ

HIF1a;ARNT (HIFa partner), sequence (P27540 1-503, chain 2 of 2, other chains not shown): as the sequence (P27540 1-503, chain 2 of 2) above
NPAS4;ARNT2 (NPAS4 partner), sequence (Q8BGD7 1-329, chain 1 of 2): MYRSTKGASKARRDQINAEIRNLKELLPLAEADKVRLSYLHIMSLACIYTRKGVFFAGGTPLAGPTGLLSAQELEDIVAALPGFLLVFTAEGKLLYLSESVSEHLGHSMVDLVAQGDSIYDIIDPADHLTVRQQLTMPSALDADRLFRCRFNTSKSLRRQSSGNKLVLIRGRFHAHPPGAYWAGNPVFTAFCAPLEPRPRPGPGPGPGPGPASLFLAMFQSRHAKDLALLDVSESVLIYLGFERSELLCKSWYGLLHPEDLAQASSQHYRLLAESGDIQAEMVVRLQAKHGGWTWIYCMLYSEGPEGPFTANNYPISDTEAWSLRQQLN
NPAS4;ARNT2 (NPAS4 partner), sequence (Q61324 1-481, chain 2 of 2): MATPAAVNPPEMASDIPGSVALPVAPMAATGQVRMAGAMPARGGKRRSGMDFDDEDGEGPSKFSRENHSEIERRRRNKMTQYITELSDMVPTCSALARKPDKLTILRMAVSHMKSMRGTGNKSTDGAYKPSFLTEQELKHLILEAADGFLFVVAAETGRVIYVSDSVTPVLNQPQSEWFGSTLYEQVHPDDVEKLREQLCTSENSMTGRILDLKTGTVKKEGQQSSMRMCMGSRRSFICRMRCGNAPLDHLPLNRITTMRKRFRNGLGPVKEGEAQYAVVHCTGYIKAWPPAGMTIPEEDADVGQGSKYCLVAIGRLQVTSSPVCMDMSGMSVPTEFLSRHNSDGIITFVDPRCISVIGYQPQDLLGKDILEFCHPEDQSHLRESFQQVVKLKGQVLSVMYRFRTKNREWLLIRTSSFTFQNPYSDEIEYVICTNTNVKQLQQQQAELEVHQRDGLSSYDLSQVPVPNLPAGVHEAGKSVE
SIM1;ARNT2 (SIM1 partner), sequence (P81133 1-348, chain 1 of 2): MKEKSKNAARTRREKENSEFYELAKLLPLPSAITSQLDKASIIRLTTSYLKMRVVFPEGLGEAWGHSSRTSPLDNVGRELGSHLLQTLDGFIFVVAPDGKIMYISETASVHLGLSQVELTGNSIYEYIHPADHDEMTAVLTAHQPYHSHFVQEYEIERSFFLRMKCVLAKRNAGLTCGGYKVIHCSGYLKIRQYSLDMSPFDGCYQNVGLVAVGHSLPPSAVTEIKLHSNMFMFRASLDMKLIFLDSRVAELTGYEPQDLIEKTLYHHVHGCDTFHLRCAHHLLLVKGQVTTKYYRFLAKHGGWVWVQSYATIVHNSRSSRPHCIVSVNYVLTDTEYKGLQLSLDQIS
SIM1;ARNT2 (SIM1 partner), sequence (Q9HBZ2 1-455, chain 2 of 2): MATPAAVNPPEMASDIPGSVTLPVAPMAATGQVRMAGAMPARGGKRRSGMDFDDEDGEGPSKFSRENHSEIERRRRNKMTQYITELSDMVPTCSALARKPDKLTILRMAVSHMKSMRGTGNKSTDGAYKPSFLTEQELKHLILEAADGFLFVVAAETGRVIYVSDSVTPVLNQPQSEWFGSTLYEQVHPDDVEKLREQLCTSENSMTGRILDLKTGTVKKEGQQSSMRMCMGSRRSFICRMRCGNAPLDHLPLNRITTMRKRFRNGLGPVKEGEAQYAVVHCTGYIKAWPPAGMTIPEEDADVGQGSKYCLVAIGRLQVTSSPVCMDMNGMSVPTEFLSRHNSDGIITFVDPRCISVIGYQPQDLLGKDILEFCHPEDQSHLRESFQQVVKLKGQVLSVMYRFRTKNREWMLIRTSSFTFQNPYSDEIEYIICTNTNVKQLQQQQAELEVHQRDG

B1: SRE (dsDNA)
DNA 1: AAAAGGTACGTGACCAAAAAGA
DNA 2: TCTTTTTGGTCACGTACCTTTT
[1]
  binding result: binds

B2: NRE (dsDNA)
DNA 1: AAATGAGTCGTGACCAAAAATT
DNA 2: AATTTTTGGTCACGACTCATTT
[2]
  binding result: binds

B3: HRE (C/C) (dsDNA)
DNA 1: AGGCTGCGTACGTGCGGGTCGT
DNA 2: ACGACCCGCACGTACGCAGCCT
[3]
  binding signal: ~2 fold higher affinity than HIF2a/ARNT
[4]
  binding signal: ~1 reference (HIF1a/ARNT about 2-fold higher)
